From paper PMC10397247

Key:
4H1579-AA = target: T1, 4H1579-AA; assay: two-hybrid library CCmax;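 also: natural log of median RNA to DNA barcode read ratio; higher means stronger binding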
T1 chain: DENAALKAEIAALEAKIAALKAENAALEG

4H1597-AA = target: T2, 4H1597-AA; assay: two-hybrid library CCmax; settings: mean of both orientations;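 also: natural log of median RNA to DNA barcode read ratio; higher means stronger binding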
T2 chain: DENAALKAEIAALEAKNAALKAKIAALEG

4H1626-AA = target: T3, 4H1626-AA; assay: two-hybrid library CCmax; settings: mean of both orientations;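 also: natural log of median RNA to DNA barcode read ratio; higher means stronger binding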
T3 chain: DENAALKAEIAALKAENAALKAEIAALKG

4H171-AA = target: T4, 4H171-AA; assay: two-hybrid library CCmax; settings: mean of both orientations;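 also: natural log of median RNA to DNA barcode read ratio; higher means stronger binding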
T4 chain: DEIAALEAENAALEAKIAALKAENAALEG

4H174-AA = target: T5, 4H174-AA; assay: two-hybrid library CCmax; settings: mean of both orientations;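 also: natural log of median RNA to DNA barcode read ratio; higher means stronger binding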
T5 chain: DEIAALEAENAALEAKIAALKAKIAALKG

4H1842-AA = target: T6, 4H1842-AA; assay: two-hybrid library CCmax; settings: mean of both orientations;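 also: natural log of median RNA to DNA barcode read ratio; higher means stronger binding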
T6 chain: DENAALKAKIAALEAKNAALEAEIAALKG

4H1864-AA = target: T7, 4H1864-AA; assay: two-hybrid library CCmax; settings: mean of both orientations
T7 chain: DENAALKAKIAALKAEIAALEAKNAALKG

4H1877-AA = target: T8, 4H1877-AA; assay: two-hybrid library CCmax; settings: mean of both orientations
T8 chain: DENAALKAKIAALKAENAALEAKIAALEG

4H2109-AA = target: T9, 4H2109-AA; assay: two-hybrid library CCmax; settings: mean of both orientations
T9 chain: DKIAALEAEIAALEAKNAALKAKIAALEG

4H2162-AA = target: T10, 4H2162-AA; assay: two-hybrid library CCmax; settings: mean of both orientations
T10 chain: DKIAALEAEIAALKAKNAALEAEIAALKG

4H2253-AA = target: T11, 4H2253-AA; assay: two-hybrid library CCmax; settings: mean of both orientations
T11 chain: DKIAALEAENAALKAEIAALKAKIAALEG

4H2274-AA = target: T12, 4H2274-AA; assay: two-hybrid library CCmax; settings: mean of both orientations
T12 chain: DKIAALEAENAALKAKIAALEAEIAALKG

4H2330-AA = target: T13, 4H2330-AA; assay: two-hybrid library CCmax; settings: mean of both orientations
T13 chain: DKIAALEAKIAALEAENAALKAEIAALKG

4H2389-AA = target: T14, 4H2389-AA; assay: two-hybrid library CCmax; settings: mean of both orientations
T14 chain: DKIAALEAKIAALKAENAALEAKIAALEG

4H2438-AA = target: T15, 4H2438-AA; assay: two-hybrid library CCmax; settings: mean of both orientations
T15 chain: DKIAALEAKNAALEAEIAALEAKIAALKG

4H2473-AA = target: T16, 4H2473-AA; assay: two-hybrid library CCmax; settings: mean of both orientations
T16 chain: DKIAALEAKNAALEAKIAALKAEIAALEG

4H2649-AA = target: T17, 4H2649-AA; assay: two-hybrid library CCmax; settings: mean of both orientations
T17 chain: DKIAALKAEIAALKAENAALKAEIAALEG

4H2698-AA = target: T18, 4H2698-AA; assay: two-hybrid library CCmax; settings: mean of both orientations
T18 chain: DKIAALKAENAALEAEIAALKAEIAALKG

4H2725-AA = target: T19, 4H2725-AA; assay: two-hybrid library CCmax; settings: mean of both orientations
T19 chain: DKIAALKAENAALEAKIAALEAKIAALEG

4H2865-AA = target: T20, 4H2865-AA; assay: two-hybrid library CCmax
T20 chain: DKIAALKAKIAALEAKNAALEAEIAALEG

4H3009-AA = target: T21, 4H3009-AA; assay: two-hybrid library CCmax; settings: mean of both orientations
T21 chain: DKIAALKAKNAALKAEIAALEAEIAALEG

4H3016-AA = target: T22, 4H3016-AA; assay: two-hybrid library CCmax; settings: mean of both orientations
T22 chain: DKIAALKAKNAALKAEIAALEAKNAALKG

4H310-AA = target: T23, 4H310-AA; assay: two-hybrid library CCmax; settings: mean of both orientations
T23 chain: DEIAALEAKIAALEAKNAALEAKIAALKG

4H3120-AA = target: T24, 4H3120-AA; assay: two-hybrid library CCmax; settings: mean of both orientations
T24 chain: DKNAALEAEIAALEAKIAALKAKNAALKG

4H3130-AA = target: T25, 4H3130-AA; assay: two-hybrid library CCmax
T25 chain: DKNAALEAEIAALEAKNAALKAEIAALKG

4H3165-AA = target: T26, 4H3165-AA; assay: two-hybrid library CCmax; settings: mean of both orientations
T26 chain: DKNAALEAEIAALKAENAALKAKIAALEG

4H3381-AA = target: T27, 4H3381-AA; assay: two-hybrid library CCmax; settings: mean of both orientations
T27 chain: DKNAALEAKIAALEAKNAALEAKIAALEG

4H3395-AA = target: T28, 4H3395-AA; assay: two-hybrid library CCmax; settings: mean of both orientations
T28 chain: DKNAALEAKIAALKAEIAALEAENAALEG

4H3410-AA = target: T29, 4H3410-AA; assay: two-hybrid library CCmax; settings: mean of both orientations
T29 chain: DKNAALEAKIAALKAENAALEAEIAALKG

4H3590-AA = target: T30, 4H3590-AA; assay: two-hybrid library CCmax; settings: mean of both orientations
T30 chain: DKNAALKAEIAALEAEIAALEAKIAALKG

4H3697-AA = target: T31, 4H3697-AA; assay: two-hybrid library CCmax; settings: mean of both orientations
T31 chain: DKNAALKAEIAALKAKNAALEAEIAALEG

4H3753-AA = target: T32, 4H3753-AA; assay: two-hybrid library CCmax; settings: mean of both orientations
T32 chain: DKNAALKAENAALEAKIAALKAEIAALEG

4H3865-AA = target: T33, 4H3865-AA; assay: two-hybrid library CCmax; settings: mean of both orientations
T33 chain: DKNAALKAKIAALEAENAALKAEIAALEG

4H458-AA = target: T34, 4H458-AA; assay: two-hybrid library CCmax; settings: mean of both orientations
T34 chain: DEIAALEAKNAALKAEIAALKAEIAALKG

4H485-AA = target: T35, 4H485-AA; assay: two-hybrid library CCmax; settings: mean of both orientations
T35 chain: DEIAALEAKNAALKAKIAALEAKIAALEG

4H536-AA = target: T36, 4H536-AA; assay: two-hybrid library CCmax; settings: mean of both orientations
T36 chain: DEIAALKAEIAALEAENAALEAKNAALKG

4H570-AA = target: T37, 4H570-AA; assay: two-hybrid library CCmax; settings: mean of both orientations
T37 chain: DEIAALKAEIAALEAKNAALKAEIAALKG

4H629-AA = target: T38, 4H629-AA; assay: two-hybrid library CCmax; settings: mean of both orientations
T38 chain: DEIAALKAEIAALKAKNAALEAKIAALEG

4H710-AA = target: T39, 4H710-AA; assay: two-hybrid library CCmax; settings: mean of both orientations
T39 chain: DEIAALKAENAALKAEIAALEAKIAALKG

4H745-AA = target: T40, 4H745-AA; assay: two-hybrid library CCmax; settings: mean of both orientations
T40 chain: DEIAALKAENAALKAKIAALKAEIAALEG

4H797-AA = target: T41, 4H797-AA; assay: two-hybrid library CCmax; settings: mean of both orientations
T41 chain: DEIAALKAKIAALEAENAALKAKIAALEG

4H850-AA = target: T42, 4H850-AA; assay: two-hybrid library CCmax; settings: mean of both orientations
T42 chain: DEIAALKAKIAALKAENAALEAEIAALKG

4H891-AA = target: T43, 4H891-AA; assay: two-hybrid library CCmax; settings: mean of both orientations
T43 chain: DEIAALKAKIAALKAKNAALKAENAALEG

4H909-AA = target: T44, 4H909-AA; assay: two-hybrid library CCmax; settings: mean of both orientations
T44 chain: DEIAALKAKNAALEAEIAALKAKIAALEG

4H930-AA = target: T45, 4H930-AA; assay: two-hybrid library CCmax; settings: mean of both orientations
T45 chain: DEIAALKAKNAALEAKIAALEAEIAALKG

4H94-AA = target: T46, 4H94-AA; assay: two-hybrid library CCmax; settings: mean of both orientations
T46 chain: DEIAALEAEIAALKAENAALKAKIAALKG

P2bH1 = target: T47, P2bH1; assay: two-hybrid library CCNG1
T47 chain: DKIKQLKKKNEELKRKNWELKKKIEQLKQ

P3bH1 = target: T48, P3bH1; assay: two-hybrid library CCNG1
T48 chain: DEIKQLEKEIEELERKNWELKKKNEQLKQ

P4bH1 = target: T49, P4bH1; assay: two-hybrid library CCNG1
T49 chain: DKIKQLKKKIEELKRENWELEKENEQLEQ

P5bH1 = target: T50, P5bH1; assay: two-hybrid library CCNG1
T50 chain: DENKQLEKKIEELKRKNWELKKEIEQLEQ

P6bH1 = target: T51, P6bH1; assay: two-hybrid library CCNG1
T51 chain: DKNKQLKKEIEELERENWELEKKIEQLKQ

P7bH1 = target: T52, P7bH1; assay: two-hybrid library CCNG1
T52 chain: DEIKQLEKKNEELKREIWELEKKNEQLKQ

P8bH1 = target: T53, P8bH1; assay: two-hybrid library CCNG1
T53 chain: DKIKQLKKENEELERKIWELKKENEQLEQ

P9bH1 = target: T54, P9bH1; assay: two-hybrid library CCNG1
T54 chain: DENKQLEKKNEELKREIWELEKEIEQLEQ

B1: 4H1579-AA (peptide)
chain: DENAALKAEIAALEAKIAALKAENAALEG
B1 gave an interaction score (4H1579-AA) of 0.482, an interaction score (4H1597-AA) of -0.651 and an interaction score (4H1626-AA) of -1.19. For the same binder, the interaction score (4H171-AA) was -1.67, the interaction score (4H174-AA) was -0.805 and the interaction score (4H1842-AA) was -2.03. The interaction score (4H1864-AA) was 2.38, the interaction score (4H1877-AA) was -0.858 and the interaction score (4H2109-AA) was 0.8. For the same binder, the interaction score (4H2162-AA) was -1.63, the interaction score (4H2253-AA) was -1.23 and the interaction score (4H2274-AA) was -1.24. For the same binder, the interaction score (4H2330-AA) was -1.81, the interaction score (4H2389-AA) was -1.56 and the interaction score (4H2438-AA) was -1.18. The interaction score (4H2473-AA) was -1.09, the interaction score (4H2649-AA) was -1.11 and the interaction score (4H2698-AA) was -1.29. The interaction score (4H2725-AA) was -1.31, the interaction score (4H2865-AA) was -1.53 and the interaction score (4H3009-AA) was -2.01. The interaction score (4H3016-AA) was 0.0969, the interaction score (4H310-AA) was -1.28 and the interaction score (4H3120-AA) was 0.595. For the same binder, the interaction score (4H3130-AA) was -1.12, the interaction score (4H3165-AA) was -1.86 and the interaction score (4H3381-AA) was -1.48. For the same binder, the interaction score (4H3395-AA) was 0.656, the interaction score (4H3410-AA) was -1.51 and the interaction score (4H3590-AA) was 1.2. It also gave an interaction score (4H3697-AA) of -1.92, an interaction score (4H3753-AA) of 1.01 and an interaction score (4H3865-AA) of -1.22. It also gave an interaction score (4H458-AA) of -1.8, an interaction score (4H485-AA) of -0.986 and an interaction score (4H536-AA) of 0.42. It also gave an interaction score (4H570-AA) of -0.453, an interaction score (4H629-AA) of -1.42 and an interaction score (4H710-AA) of -1.33. It also gave an interaction score (4H745-AA) of 1.21, an interaction score (4H797-AA) of -1.46 and an interaction score (4H850-AA) of -1.18. It also gave an interaction score (4H891-AA) of -1, an interaction score (4H909-AA) of -1.94 and an interaction score (4H930-AA) of -1.7. It also gave an interaction score (4H94-AA) of -1.21.

B2: P2bH1 (peptide)
chain: DKIKQLKKKNEELKRKNWELKKKIEQLKQ
For B2, the interaction score (P2bH1) was -0.432, the interaction score (P3bH1) was -0.234 and the interaction score (P4bH1) was -0.137. It also gave an interaction score (P5bH1) of -0.796, an interaction score (P6bH1) of -1.16 and an interaction score (P7bH1) of 0.231. For the same binder, the interaction score (P8bH1) was -0.331 and the interaction score (P9bH1) was 0.693.
